Reference: US20220119534A1 (DRAGONFLY THERAPEUTICS, published 2022)

Key:
[1] = biological target: T1, Human CLEC12A expressed on cells (Ba/F3-hCLEC12A, PL21, HL60) (human, UniProt Q5QGZ9 1-265); experiment: cell-based or functional assay
T1 sequence: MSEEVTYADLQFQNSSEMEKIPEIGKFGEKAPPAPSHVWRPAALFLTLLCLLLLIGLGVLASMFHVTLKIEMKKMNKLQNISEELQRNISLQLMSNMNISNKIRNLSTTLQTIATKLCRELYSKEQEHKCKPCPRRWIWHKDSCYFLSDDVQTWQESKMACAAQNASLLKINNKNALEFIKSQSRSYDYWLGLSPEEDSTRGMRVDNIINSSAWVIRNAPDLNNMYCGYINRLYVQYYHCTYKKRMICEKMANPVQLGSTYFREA

[2] = biological target: T1, Human CLEC12A expressed on cells …; experiment: cell-based or functional assay; remark: listed apart in the source
[3] = biological target: T2, human CLEC12A expressed on cells (human, UniProt Q5QGZ9 1-265); experiment: flow cytometry, hCLEC12A+ Ba/F3
T2 construct: Transduced isogenic cells or endogenous expression on AML cells; also called RMA-hCLEC12A; Ba/F3-hCLEC12A
T2 sequence: T1 sequence

[4] = biological target: T2, human CLEC12A expressed on cells; experiment: flow cytometry on RMA-hCLEC12A cells
[5] = biological target: T3, recombinant human CLEC12A-His (human, UniProt Q5QGZ9 65-265); experiment: SPR screening, semi-purified
T3 construct: also called hCLEC12A-His; hCLEC12A
T3 sequence: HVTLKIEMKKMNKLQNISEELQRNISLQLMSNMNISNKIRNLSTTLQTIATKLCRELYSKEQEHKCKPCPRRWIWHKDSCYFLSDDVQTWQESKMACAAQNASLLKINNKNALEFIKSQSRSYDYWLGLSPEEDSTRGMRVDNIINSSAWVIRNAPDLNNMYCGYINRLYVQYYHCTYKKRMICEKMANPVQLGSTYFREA

[6] = biological target: T2, human CLEC12A expressed on cells; experiment: flow cytometry on Ba/F3-hCLEC12A cells, fold over background
[7] = biological target: T2, human CLEC12A expressed on cells; experiment: flow cytometry on HL-60 cells, fold over background
[8] = biological target: T4, human CLEC12A on cells (HL60, PL21, Ba/F3-hCLEC12A) (human, UniProt Q5QGZ9 1-265); experiment: flow cytometry, HL60 cells
T4 construct: Endogenous on the AML lines HL60 and PL21; brought into mouse Ba/F3 cells by retroviral transduction; The cell line stands under assay; also called CLL-1
T4 sequence: T1 sequence

[9] = biological target: T4, human CLEC12A on cells (HL60, PL21, …); experiment: flow cytometry, Ba/F3-hCLEC12A cells
[10] = biological target: T4, human CLEC12A on cells (HL60, PL21, …); experiment: flow cytometry, PL21 cells
[11] = biological target: T4, human CLEC12A on cells (HL60, PL21, …); experiment: flow cytometry, 40 nM, MFI after 2 h 37 C relative to 2 h on ice, HL60 cells
[12] = biological target: T4, human CLEC12A on cells (HL60, PL21, …); experiment: flow cytometry, 40 nM, MFI after 2 h 37 C relative to 2 h on ice, PL21 cells
[13] = biological target: T3, recombinant human CLEC12A-His; experiment: SPR screening
[14] = biological target: T5, recombinant cynomolgus CLEC12A-His (cynomolgus monkey, UniProt A0A2K5WXQ4 71-271); experiment: SPR, purified murine mAb
T5 construct: also called cCLEC12A-His; cCLEC12A
T5 sequence: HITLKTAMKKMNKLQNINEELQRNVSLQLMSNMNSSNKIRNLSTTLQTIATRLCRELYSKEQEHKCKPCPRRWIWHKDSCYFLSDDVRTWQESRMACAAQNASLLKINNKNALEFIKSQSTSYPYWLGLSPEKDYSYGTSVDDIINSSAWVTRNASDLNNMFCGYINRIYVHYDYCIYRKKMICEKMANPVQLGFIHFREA

[15] = biological target: T3, recombinant human CLEC12A-His; experiment: SPR, purified murine mAb
[16] = biological target: T3, recombinant human CLEC12A-His; experiment: SPR
[17] = biological target: T6, de-sialylated hCLEC12A (human, UniProt Q5QGZ9 65-265, terminal sialic acids removed (neuraminidase)); experiment: SPR
T6 construct: also called De-sialylated CLEC12A
T6 sequence: T3 sequence

[18] = biological target: T7, de-glycosylated hCLEC12A (human, UniProt Q5QGZ9 65-265, N-linked glycans removed (PNGase F)); experiment: SPR
T7 construct: also called PNGase-treated hCLEC12A; De-glycosylated CLEC12A
T7 sequence: T3 sequence

B1: AB0305 mAb (Humanized 1739 anti-CLEC12A mAb) (antibody, V domains shown)
VH: QLQLQESGPGLVKPSETLSLTCTVSGFSLTNYGLHWIRQPPGKGLEWIGVIWVGGATDYNPSLKSRVTISVDTSKNQFSLKLSSVQAADTAVYYCAKGDYGDTLDYWGQGTLVTVSS
VL: DIQMTQSPSSLSASVGDRVTITCHASQNINFWLSWYQQKPGKAPKLLIYEASNLHTGVPSRFSGSGSGTDFTLTISSLQPEDFATYYCQQSHSYPLTFGSGTKLEIK
% Max, ADCP activity of M0 macrophages against PL21 cells [1]: 10% | EC50, ADCP activity of M0 macrophages against PL21 cells [1]: 0.02 nM | EC50, primary NK mediated cytotoxic killing of PL21 cells [2]: 1.85 nM

B2: hcFAE-A49.CLL1-Merus (bispecific antibody, V domains shown)
VH 1: EVQLVQSGAEVKKPGASVKVSCKASGYTFTSYYMHWVRQAPGQGLEWMGIINPSGGSTSYAQKFQGRVTMTRDTSTSTVYMELSSLRSEDTAVYYCARGNYGDEFDYWGQGTLVTVSS
VL 1: not shown
VH 2: EVQLVESGGGLVKPGGSLRLSCAASGFTFSSYSMNWVRQAPGKGLEWVSSISSSSSYIYYADSVKGRFTISRDNAKNSLYLQMNSLRAEDTAVYYCARGAPMGAAAGWFDPWGQGTLVTVSS
VL 2: DIQMTQSPSSVSASVGDRVTITCRASQGISSWLAWYQQKPGKAPKLLIYAASSLQSGVPSRFSGSGSGTDFTLTISSLQPEDFATYYCQQGVSFPRTFGGGTKVEIK
notes: Duobody TriNKET: CLEC12A Fab of Merus CLL1 and NKG2D Fab A49; also called hcFAE-A49.CLL-Merus; control CLEC12A-TriNKET
EC50 [3]: 14.3 nM | Max MFI [3]: 39700 MFI | EC50 (read off the curve) [4]: ~3 nM

B3: F3'-1304 (other)
chain: DIQMTQSPSSLSASVGDRVTITCHASQNINFWLSWYQQKPGKIPKLLIYEASNLHTGVPSRFSGSGSGTRFTLTISSLQPEDIATYYCQQSHSYPLTFGCGTKLEIKGGGGSGGGGSGGGGSGGGGSQLQLQESGPGLVKPSETLSLTCTVSGFSLTNYGLHWIRQPPGKCLEWIGVIWSGGKTDYNPSLKSRVTISKDTSKNQFSLKLSSVQAADTAVYYCAKYDYDDSLDYWGQGTLVTVSSGSDKTHTCPPCPAPELLGGPSVFLFPPKPKDTLMISRTPEVTCVVVDVSHEDPEVKFNWYVDGVEVHNAKTKPREEQYNSTYRVVSVLTVLHQDWLNGKEYKCKVSNKALPAPIEKTISKAKGQPREPRVYTLPPCRDELTKNQVSLTCLVKGFYPSDIAVEWESNGQPENNYKTTPPVLVSDGSFTLYSKLTVDKSRWQQGNVFSCSVMHEALHNHYTQKSLSLSPG
heavy: EVQLVESGGGLVKPGGSLRLSCAASGFTFSSYSMNWVRQAPGKGLEWVSSISSSSSYIYYADSVKGRFTISRDNAKNSLYLQMNSLRAEDTAVYYCARGAPIGAAAGWFDPWGQGTLVTVSSASTKGPSVFPLAPSSKSTSGGTAALGCLVKDYFPEPVTVSWNSGALTSGVHTFPAVLQSSGLYSLSSVVTVPSSSLGTQTYICNVNHKPSNTKVDKKVEPKSCDKTHTCPPCPAPELLGGPSVFLFPPKPKDTLMISRTPEVTCVVVDVSHEDPEVKFNWYVDGVEVHNAKTKPREEQYNSTYRVVSVLTVLHQDWLNGKEYKCKVSNKALPAPIEKTISKAKGQPREPQVCTLPPSRDELTENQVSLTCLVKGFYPSDIAVEWESNGQPENNYKTTPPVLDSDGSFFLYSWLTVDKSRWQQGNVFSCSVMHEALHNHYTQKSLSLSPG
light: DIQMTQSPSSVSASVGDRVTITCRASQGISSWLAWYQQKPGKAPKLLIYAASSLQSGVPSRFSGSGSGTDFTLTISSLQPEDFATYYCQQGVSFPRTFGGGTKVEIKRTVAAPSVFIFPPSDEQLKSGTASVVCLLNNFYPREAKVQWKVDNALQSGNSQESVTEQDSKDSTYSLSSTLTLSKADYEKHKVYACEVTHQGLSSPVTKSFNRGEC
notes: As F3'-1292
EC50 (read off the curve) [4]: ~10 nM | Kd [5]: 2.7 nM | koff [5]: 0.0013 s⁻¹ | kon [5]: 480000 M⁻¹ s⁻¹

B4: AB0305 (antibody, IgG1, V domains shown)
VH: B1 VH
VL: B1 VL
notes: hIgG1 mAb; also called Humanized 1739 anti-CLEC12A mAb; parental mAb of AB0089
EC50 (read off the curve) [6]: ~0.6 nM | EC50 (read off the curve) [7]: ~0.1 nM

B5: AB0306 (antibody, IgG1, V domains shown)
VH: EVQLVESGGGVVQPGGSLRLSCAASGFTFNAFGMHWVRQAPGKGLEWVAFISSGSTSIYYANTVKGRFTISRDNSKNTLYLQMNSLRAEDTAVYYCARDGYPTGGAMDYWGQGTSVTVSS
VL: DIQMTQSPSSLSASVGDRVTITCKASQDIYNYLSWFQQKPGKAPKPLIYRANILVSGVPSRFSGSGSGQDYTFTISSLQPEDIATYYCLQFDAFPFTFGSGTKLEIK
notes: hIgG1 mAb; also called Humanized 1797 anti-CLEC12A mAb; parental mAb of AB0192
EC50 (read off the curve) [6]: ~0.8 nM | EC50 (read off the curve) [7]: ~0.5 nM

B6: AB0306 mAb (Humanized 1797 anti-CLEC12A mAb) (antibody, IgG1, V domains shown)
VH: B5 VH
VL: B5 VL
notes: Parental hIgG1 mAb of AB0192; also called parental mAb of AB0192
EC50 [8]: 0.26 nM | FOB (fold over background) [8]: 47 fold | EC50 [9]: 0.68 nM | FOB (fold over background) [9]: 303 fold | EC50 [10]: 0.18 nM | FOB (fold over background) [10]: 12 fold | percent surface retention [11]: 114% | percent surface retention [12]: 106%

B7: m9F11-hIgG1 (antibody, V domains shown)
VH: EVQLQESGGGLVQPGGSRKLSCAASGFTFNSFGMHWVRQAPEKGLEWVAFISSGSTSIYYANTVKGRFTISRDNPKNTLFLQMTSLRSEDTAMYYCARDGYPTGGAMDYWGQGTSVTVSS
VL: DIKMTQSPSSMYASLGERVTITCKASQDIYNYLSWFQLKPGKSPRPLIYRANILVSGVPSKFSGSGSGQDYSLTINSLEYEDLGIYYCLQFDAFPFTFGSGTKLEIK
notes: also called chimeric parent mouse 9F11.B7 mAb
Kd [13]: 1.07 nM | koff [13]: 0.00102 s⁻¹ | kon [13]: 950000 M⁻¹ s⁻¹

B8: 15A10.G8 (antibody, V domains shown)
VH: EVQLQESGAELVRSGASIKLSCAASAFNIKDYFIHWVRQRPDQGLEWIGWIDPENDDTEYAPKFQDKATMTADTSSNTAYLQLSSLTSADTAVYYCNALWSRGGYFDYWGQGTTLTVSS
VL: EVLLTQSPAIIAASPGEKVTITCSARSSVSYMSWYQQKPGSSPKIWIYGISKLASGVPARFSGSGSGTYFSFTINNLEAEDVATYYCQQRSYYPFTFGSGTKLEIK
notes: Murine mAb
Kd [14]: 3.3 nM | koff [14]: 0.000659 s⁻¹ | kon [14]: 196000 M⁻¹ s⁻¹ | Kd [15]: 1.6 nM | koff [15]: 0.000494 s⁻¹ | kon [15]: 301000 M⁻¹ s⁻¹

B9: Murine F3'-9F11 (other)
VH: B7 VH
VL: B7 VL
notes: the text calls it clone 9F11.B7; F3' construct (scFv order, Fc, NKG2D Fab) not spelled out
Kd [16]: 0.96 nM | koff [16]: 0.00111 s⁻¹ | kon [16]: 1.15e+06 M⁻¹ s⁻¹ | Kd [17]: 0.62 nM | koff [17]: 0.00098 s⁻¹ | kon [17]: 1.58e+06 M⁻¹ s⁻¹ | Kd [18]: 0.34 nM | koff [18]: 0.000374 s⁻¹ | kon [18]: 1.11e+06 M⁻¹ s⁻¹
